Positions count from the first letter of the chain named. Names and notes keep the numbering of the source. Where two headings read alike, the source gives them in different places.
T1: high-affinity IL-2R (containing the α/β/γc-subunits of the IL-2R) expressed on CTLL-2 cells (mouse, UniProt P01590 22-268; P16297 27-539; P34902 23-369)
T1 sequence (looked up) 1: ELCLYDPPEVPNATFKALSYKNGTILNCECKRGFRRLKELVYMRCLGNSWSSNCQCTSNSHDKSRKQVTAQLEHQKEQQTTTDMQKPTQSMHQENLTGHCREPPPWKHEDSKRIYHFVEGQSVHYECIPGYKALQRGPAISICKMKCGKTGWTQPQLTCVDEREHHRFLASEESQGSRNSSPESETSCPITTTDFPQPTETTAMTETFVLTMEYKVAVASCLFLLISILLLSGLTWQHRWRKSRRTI
T1 sequence (looked up) 2: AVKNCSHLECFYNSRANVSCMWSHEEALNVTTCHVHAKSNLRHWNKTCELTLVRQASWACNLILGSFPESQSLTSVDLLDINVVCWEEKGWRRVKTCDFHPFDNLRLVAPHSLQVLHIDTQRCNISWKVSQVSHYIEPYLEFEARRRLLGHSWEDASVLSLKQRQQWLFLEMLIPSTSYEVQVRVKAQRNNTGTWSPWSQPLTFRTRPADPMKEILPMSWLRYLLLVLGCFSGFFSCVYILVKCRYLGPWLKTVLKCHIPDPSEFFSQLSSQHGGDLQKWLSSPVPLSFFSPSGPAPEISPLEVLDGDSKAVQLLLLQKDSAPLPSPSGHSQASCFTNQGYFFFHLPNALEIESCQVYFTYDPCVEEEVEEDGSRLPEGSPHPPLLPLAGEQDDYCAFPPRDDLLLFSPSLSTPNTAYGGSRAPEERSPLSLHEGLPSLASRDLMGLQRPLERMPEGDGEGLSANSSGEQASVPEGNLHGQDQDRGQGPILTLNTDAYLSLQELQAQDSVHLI
T1 sequence (looked up) 3: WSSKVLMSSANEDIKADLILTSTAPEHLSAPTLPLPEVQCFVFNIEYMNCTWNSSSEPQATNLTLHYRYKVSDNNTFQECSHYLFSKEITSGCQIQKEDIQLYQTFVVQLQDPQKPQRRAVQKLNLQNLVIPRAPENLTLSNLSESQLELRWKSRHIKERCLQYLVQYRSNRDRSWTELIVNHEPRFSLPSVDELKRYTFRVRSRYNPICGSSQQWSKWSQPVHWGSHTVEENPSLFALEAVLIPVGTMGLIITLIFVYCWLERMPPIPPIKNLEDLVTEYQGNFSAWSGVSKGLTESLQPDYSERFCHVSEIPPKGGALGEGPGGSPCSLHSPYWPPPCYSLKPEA

T2: intermediate-affinity IL-2R (containing the β/γc-subunits of the IL-2R) expressed on HH cells (human, UniProt P14784 27-551; P31785 23-369)
T2 sequence (looked up) 1: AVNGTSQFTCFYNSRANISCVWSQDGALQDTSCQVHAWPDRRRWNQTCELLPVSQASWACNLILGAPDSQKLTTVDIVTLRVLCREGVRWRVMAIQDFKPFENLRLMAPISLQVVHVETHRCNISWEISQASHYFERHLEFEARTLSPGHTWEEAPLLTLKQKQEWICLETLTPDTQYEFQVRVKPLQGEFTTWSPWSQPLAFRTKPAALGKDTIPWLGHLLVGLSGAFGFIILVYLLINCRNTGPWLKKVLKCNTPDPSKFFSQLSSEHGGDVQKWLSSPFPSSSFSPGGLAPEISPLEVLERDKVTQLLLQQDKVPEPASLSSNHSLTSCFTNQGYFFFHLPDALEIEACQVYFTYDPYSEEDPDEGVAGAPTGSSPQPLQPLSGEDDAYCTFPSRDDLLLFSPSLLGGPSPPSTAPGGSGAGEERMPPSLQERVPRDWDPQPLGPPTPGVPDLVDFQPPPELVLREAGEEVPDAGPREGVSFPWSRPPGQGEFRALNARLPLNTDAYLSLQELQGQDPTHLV
T2 sequence (looked up) 2: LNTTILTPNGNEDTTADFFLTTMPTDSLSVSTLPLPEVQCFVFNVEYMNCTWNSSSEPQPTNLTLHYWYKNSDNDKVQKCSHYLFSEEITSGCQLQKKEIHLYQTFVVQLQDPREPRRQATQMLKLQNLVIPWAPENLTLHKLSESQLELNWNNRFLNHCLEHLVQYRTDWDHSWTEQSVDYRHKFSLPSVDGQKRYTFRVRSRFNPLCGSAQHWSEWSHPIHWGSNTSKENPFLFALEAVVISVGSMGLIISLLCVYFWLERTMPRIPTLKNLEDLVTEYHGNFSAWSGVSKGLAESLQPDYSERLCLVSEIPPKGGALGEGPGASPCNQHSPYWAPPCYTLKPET

B1: IL-2 variant IL-2_#3 (F42V, Y45A, L72N, C125G) (ligand)
chain: APTSSSTKKTQLQLEHLLLDLQMILNGINNYKNPKLTRMLTVKFAMPKKATELKHLQCLEEELKPLEEVLNNAQSKNFHLRPRDLISNINVIVLELKGSETTFMCEYADETATIVEFLNRWITFGQSIISTLT
B2: IL-2 variant IL-2_#8 (F42V, Y45S, L72N, C125G) (ligand)
chain: B1 chain with A45S
B3: IL-2 variant IL-2_#28 (F42A, Y45D, L72D) (ligand)
chain: B1 chain with V42A, A45D, N72D, G125C
B4: mutant IL-2, IL-2v (AAG), with F42A, Y45A, and L72G substitutions of IL-2 (F. Hoffmann-La Roche Ltd) (ligand)
chain: B1 chain with V42A, N72G, G125C
B5: IL-2 variant IL-2_#9 (F42H, Y45D, L72I, C125G) (ligand)
chain: B1 chain with V42H, A45D, N72I
B6: IL-2 variant IL-2_#12 (F42C, Y45N, L72V) (ligand)
chain: B1 chain with V42C, A45N, N72V, G125C
B7: IL-2 variant IL-2_#31 (F42A, Y45M, L72N) (ligand)
chain: B1 chain with V42A, A45M, G125C

Experiments:
Experiment in all cases: cell-based or functional assay
[1] = target: high-affinity IL-2R (containing the α/β/γc-subunits of the IL-2R) expressed on CTLL-2 cells (mouse) (UniProt P01590)
[2] = target: high-affinity IL-2R (containing the α/β/γc-subunits of the IL-2R) expressed on CTLL-2 cells (mouse) (UniProt P01590); remark: listed apart in the source
[3] = target: T1, high-affinity IL-2R (containing the …)
[4] = target: T2, intermediate-affinity IL-2R (containing …)
[5] = target: T2, intermediate-affinity IL-2R (containing …); remark: listed apart in the source
[6] = target: T1, high-affinity IL-2R (containing the …); remark: listed apart in the source
[7] = target: T2, intermediate-affinity IL-2R (containing …); remark: listed apart in the source
[8] = target: T2, intermediate-affinity IL-2R (containing …); remark: listed apart in the source
[9] = target: T1, high-affinity IL-2R (containing the …); remark: listed apart in the source
[10] = target: T2, intermediate-affinity IL-2R (containing …); remark: listed apart in the source

| Molecule | EC50 of pSTAT-5 induction in CTLL-2 cells (flow cytometry) [3] [nM] | EC50 of pSTAT-5 induction in HH cells (flow cytometry) [4] [nM] | EC50 (HH/CTLL-2): EC50 on HH cells (intermediate-affinity IL-2R) divided by EC50 on CTLL-2 cells (high-affinity IL-2R) [5] [ratio] | further results |
| --- | --- | --- | --- | --- |
| wild-type IL-2 (proleukin) (from UniProt P60568 21-153) (ligand) |  |  |  | EC50 (CTLL-2): pSTAT-5 induction in CTLL-2 cells (flow cytometry) [1]: 0.2 nM; EC50 of pSTAT-5 induction in CTLL-2 cells (flow cytometry) [1]: 0.17 nM; EC50 of pSTAT-5 induction in CTLL-2 cells (flow cytometry) [2]: 0.231 nM |
| B1 | 44.1 | 9.6 | 0.22 |  |
| B2 | 120 | 90.2 | 0.75 |  |
| B3 |  |  |  | EC50 of pSTAT-5 induction in CTLL-2 cells (flow cytometry) [6]: 9.56 nM; EC50 of pSTAT-5 induction in HH cells (flow cytometry) [7]: 8.95 nM; EC50 (HH/CTLL-2): EC50 on HH cells (intermediate-affinity IL-2R) divided by EC50 on CTLL-2 cells (high-affinity IL-2R) [8]: 0.94 ratio |
| B4 |  |  |  | EC50 (CTLL-2): pSTAT-5 induction in CTLL-2 cells (flow cytometry) [9]: 54.1 nM; EC50 (HH): pSTAT-5 induction in HH cells (flow cytometry) [10]: 2.01 nM; EC50 (HH/CTLL-2): EC50 on HH cells (intermediate-affinity IL-2R) divided by EC50 on CTLL-2 cells (high-affinity IL-2R) [10]: 0.037 ratio |
| B5 | 10 | 17.9 | 1.79 |  |
| B6 | 2.32 | 0.556 | 0.24 |  |
| B7 |  |  |  | EC50 of pSTAT-5 induction in CTLL-2 cells (flow cytometry) [6]: 2.02 nM; EC50 of pSTAT-5 induction in HH cells (flow cytometry) [7]: 0.11 nM; EC50 (HH/CTLL-2): EC50 on HH cells (intermediate-affinity IL-2R) divided by EC50 on CTLL-2 cells (high-affinity IL-2R) [8]: 0.05 ratio |
